Results: US9663570B2, “Single domain antibodies directed against KRAS” (SINGH MOLECULAR MEDICINE, LLC, priority 2014, dated 2017)
Values joined by “and” are separate entries in the source; they are usually repeats but may differ in a detail not shown here. Equal values may be shown once.

B1: B.VHH14: second anti-STAT3 sdAb, named VHH14 (SEQ ID NO. 4) (protein)
VHH: QVQLVESGGGSVQAGGSLRLSCVASTYTGCMGWFRQAPGKEREGVAALSSRGFAGHYTDSVKGRFSISRDYVKNAVYLQMNTVKPEDAAMYYCAAREGWECGETWLDRTAGGHTYWGQGTLVTVSS
modifications: Camelid
B2: anti-TNF-alpha VHH62: third anti-TNF-alpha sdAb (SEQ ID NO. 47) (protein)
VHH: QVQLVESGGGPVQAGETLRLSCTASGFTFAEADMGWYRQAPGHECELVSTITTEGITSEASSYYADSVRGRFTISRDNAKNMVYLQMNSLKPEDTAVYYCAPDPYAYSTYSDYCSWAQGTQGTLVTVSS
modifications: Camelid
B3: anti-TNF-alpha VHH69: second anti-TNF-alpha sdAb (SEQ ID NO. 46) (protein)
VHH: EVQLVESGGGSVLAGGSLRLSCVASGFTSRYNYMAWFRQAPGKEREGVATIGTASGSADYYGSVKDRFTISQDNAKNTVYLQMNSLKPEDTAMYYCAARTYGTISLTPSDYRYWGQGTLVTVSS
modifications: Camelid

Key:
[1] = system: MDA-MB-231 cells; test: MTT proliferation assay, MDA-MB-231; type: cell-based, human; settings: for Mean Absorbance (570 nM) ± S.E., Overall Mean: mean of 4 experiments; for Mean Growth Inhibition: individual experiments 1-4;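 on all read-outs here: cultures held at 37 °C in humidified 5% CO2, treated groups compared against vehicle-treated controls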
[2] = target: T1, TNF-alpha (Homo sapiens, UniProt P01375); test: Inhibition of TNF-alpha cytotoxicity against U937 by anti-TNF-alpha sdAbs; type: cell-based; settings: constant dose of TNF-alpha at EC50
T1 construct: host or cells: added exogenously to U937 cells
T1 sequence (P01375 77-233 limits assumed): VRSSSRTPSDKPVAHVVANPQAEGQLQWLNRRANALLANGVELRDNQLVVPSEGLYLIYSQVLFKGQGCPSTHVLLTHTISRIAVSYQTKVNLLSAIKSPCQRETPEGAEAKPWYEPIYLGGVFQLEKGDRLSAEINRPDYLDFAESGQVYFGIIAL

| Molecule | Mean Absorbance (570 nM) ± S.E. ([1]; Day 3, 10.0 μg/ml, individual experiments 1-4 (Table 6)) | Mean Absorbance (570 nM) ± S.E., Overall Mean ([1]; Day 3, 10.0 μg/ml) | Mean Absorbance (570 nM) ± S.E. ([1]; Day 3, 100 μg/ml, individual experiments 1-4 (Table 6)) | Mean Absorbance (570 nM) ± S.E., Overall Mean ([1]; Day 3, 100 μg/ml) | Mean Absorbance (570 nM) ± S.E. ([1]; Day 5, 10.0 μg/ml, individual experiments 1-4 (Table 7)) | Mean Absorbance (570 nM) ± S.E., Overall Mean ([1]; Day 5, 10.0 μg/ml) | Mean Absorbance (570 nM) ± S.E. ([1]; Day 5, 100 μg/ml, individual experiments 1-4 (Table 7)) | Mean Absorbance (570 nM) ± S.E., Overall Mean ([1]; Day 5, 100 μg/ml) | Mean Growth Inhibition ([1]; post 3 days, 10.0 μg/ml) | Mean Growth Inhibition ([1]; post 3 days, 100 μg/ml) | Mean Growth Inhibition ([1]; post 5 days, 10.0 μg/ml) | Mean Growth Inhibition ([1]; post 5 days, 100 μg/ml) | inhibition of killing of U937 by TNF-alpha [2] |
| --- | --- | --- | --- | --- | --- | --- | --- | --- | --- | --- | --- | --- | --- |
| B1 | 0.456 ± 0.048 and 0.499 ± 0.018 and 0.502 ± 0.048 and 0.559 ± 0.041 | 0.504 ± 0.021 | 0.255 ± 0.005 and 0.357 ± 0.019 and 0.308 ± 0.021 and 0.287 ± 0.021 | 0.302 ± 0.043 | 0.640 ± 0.011 and 0.338 ± 0.023 and 0.930 ± 0.044 and 0.842 ± 0.052 | 0.688 ± 0.131 | 0.549 ± 0.023 and 0.274 ± 0.032 and 0.578 ± 0.039 and 0.499 ± 0.036 | 0.475 ± 0.0690 | 23.1% and 20.0% and 38.5% and 23.3% | 57.0% and 42.8% and 62.3% and 60.6% | 5.5% and 25.9% and 5.4% and 22.9% | 18.9% and 39.9% and 41.2% and 54.3% |  |
| B2 |  |  |  |  |  |  |  |  |  |  |  |  | inhibit killing of U937 by TNF-alpha |
| B3 |  |  |  |  |  |  |  |  |  |  |  |  | inhibit killing of U937 by TNF-alpha |
